For test [1], the target named is T1, HER2 immobilised on a Biacore chip (UniProt P04626 23-652, limits assumed).
T1 construct: also called immobilised HER2 target antigen (Biacore SPR); HER2 chip
Briefly: Biacore SPR, HER2 amine-coupled to the chip.

The target in test [2] is T1, HER2 immobilised on a Biacore chip. Briefly: Biacore SPR, HER2 amine-coupled to the chip; Auristatin-F-C5 conjugate, DAR 3.3. As for the experimental part: (§1) A standard amine-coupling method was used to prepare all Biacore surfaces (CM5 or CM3), as follows. Flow cells were activated individually by injecting a freshly mixed solution of 0.2M EDC in 0.05 M NHS at 30 μl/min. […] Excess NHS ester was deactivated using a 1 M ethanolamine solution. […] The dissociation time was extended to 3600 s for the highest concentration. Surfaces were regenerated with 45 s injection of MgCl₂ […].

Test [3] has the same target. Briefly: Biacore SPR, HER2 amine-coupled to the chip; DM1-dPEG12 conjugate, DAR 7. Here is the method: as §1
Test [4] has the same target. Briefly: Biacore SPR, HER2 amine-coupled to the chip; MMAE-PAB-Cit-Val-dPEG9 conjugate, DAR 8.6. As for the experimental part:
as §1

The target is the same in test [5]. As to the kind of experiment: Biacore SPR, HER2 amine-coupled to the chip; Auristatin-F-C5 conjugate, DAR 11.9. As for the experimental part:
as §1

The target is the same in test [6]. Briefly: Biacore SPR, HER2 amine-coupled to the chip; Auristatin-F-C5 conjugate, DAR 5.65. Here is the method: as §1
For test [7] the target is unchanged. As to the kind of experiment: Biacore SPR, HER2 amine-coupled to the chip; DM1-dPEG12 conjugate, DAR 8. Here is the method: as §1
Test [8] concerns the target T2, HER2-Fc (UniProt P04626 23-652).
T2 construct: Coated at 10 µg/ml on ELISA plates; also called HER2 antigen; immobilised HER2 target antigen (ELISA); not shown: Fc part
As to the kind of experiment: ELISA, plates coated with 10 µg/ml HER2-Fc, anti-T7 peroxidase detection; unmodified scFv (TCT), ELISA. Here is the method: (§2) The DAR was determined by AAA as before (Table 11A & B), this time following the release of the di-proline fragment to identify and quantify the P5-based drug. […] All proteins were detected using the C-terminal T7 Tag which was not expected to be chemically modified (no lysines present). 96-well Immunosorb ELISA plates were coated with 10 μg/ml HER2-Fc in PBS, followed by the test samples, anti-T7-peroxidase conjugate. Extensive PBS/tween-20 and PBS washes were in between each layer and detection was with BM-Blue substrate. […] The DARs were verified by AAA (Tables 11A and 11B).

Test [9] has as its target T2, HER2-Fc. Briefly: ELISA on plates coated with 10 µg/ml HER2-Fc, detection anti-T7 peroxidase conjugate, absorption at 450 nm. As for the experimental part:
(§3) All proteins were detected using the C-terminal T7 Tag which was not expected to be chemically modified (no lysines present). 96-well Immunosorb ELISA plates were coated with 10 μg/ml HER2-Fc in PBS, followed by the test samples, anti-T7 peroxidase conjugate. Extensive PBS washes were in between each layer and detection was with BM-Blue substrate.

Test [10] concerns the target T2, HER2-Fc. Briefly: ELISA, plates coated with 10 µg/ml HER2-Fc, anti-T7 peroxidase detection. As for the experimental part: as §3
For test [11], the target named is T2, HER2-Fc. Briefly: ELISA on plates coated with 10 µg/ml HER2-Fc, detection anti-T7 peroxidase conjugate, absorption at 450 nm. As for the experimental part: as §2
This is another data set of the same source.

Test [12] deals with T2, HER2-Fc. As to the kind of experiment: ELISA, plates coated with 10 µg/ml HER2-Fc, anti-T7 peroxidase detection; scFv TCT-P5C5(1), 8 drugs loaded, ELISA. As for the experimental part:
as §2

Like-named read-outs stand apart in the source and are kept apart here.

B1: scFv (TCT1067)-Auristatin-F-C5 DAR 3.3 (scFv)
scFv: SGSGGSGQVQLVQSGAEVKKPGESLKISCKGSGYSFTSYWIAWVRQMPGKGLEYMGLIYPGDSDTKYSPSFQGQVTISVDKSVSTAYLQWSSLKPSDSAVYFCARHDVGYCTDRTCAAWPEWLGVWGQGTLVTVSSGGGGSGGGGSGGGGSQSVLTQPPSVSAAPGQKVTISCSGSSSNIGNNYVSWYQQLPGTAPKLLIYGHTNRPAGVPDRFSGSKSGTSASLAISGFRSEDEADYYCASWDYTLSGWVFGGGTKLTVLMASMTGGQQMG
modifications: Auristatin F-C5 on lysine residues; DAR 3.64 by AAA, 2.9 by MS, average 3.3
notes: also called TCT1067-AF-C5 ADC 1
For B1, in test [1], the koff turned out to be 1.82e-05 s⁻¹ and the kon turned out to be 556000 M⁻¹ s⁻¹. In addition, in [2], the Kd was determined as 0.0328 nM.

B2: scFv (TCT1067)-DM1-dPEG12 DAR 7 (scFv)
scFv: SGSGGSGQVQLVQSGAEVKKPGESLKISCKGSGYSFTSYWIAWVRQMPGKGLEYMGLIYPGDSDTKYSPSFQGQVTISVDKSVSTAYLQWSSLKPSDSAVYFCARHDVGYCTDRTCAAWPEWLGVWGQGTLVTVSSGGGGSGGGGSGGGGSQSVLTQPPSVSAAPGQKVTISCSGSSSNIGNNYVSWYQQLPGTAPKLLIYGHTNRPAGVPDRFSGSKSGTSASLAISGFRSEDEADYYCASWDYTLSGWVFGGGTKLTVLMASMTGGQQMG
modifications: Maytansine DM1-dPEG12 on lysine residues, 6-8 additions, average DAR 7 by LC-MS
notes: also called TCT1067-Maytansine-PEG(12) DM1 ADC 1; compound 124
With B2, in test [1], the koff is 2.7e-05 s⁻¹ and the kon was 19500 M⁻¹ s⁻¹. In test [3], this molecule showed a Kd of 1.39 nM.

B3: scFv (TCT1067)-MMAE-PAB-Cit-Val-dPEG9 conjugate, DAR 8.6 (scFv)
scFv: SGSGGSGQVQLVQSGAEVKKPGESLKISCKGSGYSFTSYWIAWVRQMPGKGLEYMGLIYPGDSDTKYSPSFQGQVTISVDKSVSTAYLQWSSLKPSDSAVYFCARHDVGYCTDRTCAAWPEWLGVWGQGTLVTVSSGGGGSGGGGSGGGGSQSVLTQPPSVSAAPGQKVTISCSGSSSNIGNNYVSWYQQLPGTAPKLLIYGHTNRPAGVPDRFSGSKSGTSASLAISGFRSEDEADYYCASWDYTLSGWVFGGGTKLTVLMASMTGGQQMG
modifications: MMAE-PAB-Cit-Val-dPEG9 (from compound 86) on lysine residues; DAR 9.6 by AAA, 7.5 by LC-MS, average 8.6
notes: also called TCT1067-MMAE ADC1
In test [1], B3 displayed a koff of 2.23e-05 s⁻¹ and a kon of 22100 M⁻¹ s⁻¹. Also, in test [4], the Kd was found to be 1 nM.

B4: scFv (TCT1067)-Auristatin-F-C5 DAR 11.9 (scFv)
scFv: SGSGGSGQVQLVQSGAEVKKPGESLKISCKGSGYSFTSYWIAWVRQMPGKGLEYMGLIYPGDSDTKYSPSFQGQVTISVDKSVSTAYLQWSSLKPSDSAVYFCARHDVGYCTDRTCAAWPEWLGVWGQGTLVTVSSGGGGSGGGGSGGGGSQSVLTQPPSVSAAPGQKVTISCSGSSSNIGNNYVSWYQQLPGTAPKLLIYGHTNRPAGVPDRFSGSKSGTSASLAISGFRSEDEADYYCASWDYTLSGWVFGGGTKLTVLMASMTGGQQMG
modifications: Auristatin F-C5 on lysine residues; DAR 13.4 by AAA, 10.4 by MS, average 11.9
notes: also called TCT1067-AF-C5 ADC 3
On to B4, for which, in [1], the koff came to 1.76e-05 s⁻¹ and the kon was 21700 M⁻¹ s⁻¹. Moreover, the Kd in test [5] worked out at 0.81 nM.

B5: scFv (TCT1067)-Auristatin-F-C5 DAR 5.65 (scFv)
scFv: SGSGGSGQVQLVQSGAEVKKPGESLKISCKGSGYSFTSYWIAWVRQMPGKGLEYMGLIYPGDSDTKYSPSFQGQVTISVDKSVSTAYLQWSSLKPSDSAVYFCARHDVGYCTDRTCAAWPEWLGVWGQGTLVTVSSGGGGSGGGGSGGGGSQSVLTQPPSVSAAPGQKVTISCSGSSSNIGNNYVSWYQQLPGTAPKLLIYGHTNRPAGVPDRFSGSKSGTSASLAISGFRSEDEADYYCASWDYTLSGWVFGGGTKLTVLMASMTGGQQMG
modifications: Auristatin F-C5 on lysine residues; DAR 6.31 by AAA, 4.98 by MS, average 5.65
notes: also called TCT1067-AF-C5 ADC2
In [1], B5 yielded a koff of 1.35e-05 s⁻¹ and a kon of 336000 M⁻¹ s⁻¹. In test [6], this molecule showed a Kd of 0.0403 nM.

B6: scFv (TCT1067)-DM1-dPEG12 DAR 8 (scFv)
scFv: SGSGGSGQVQLVQSGAEVKKPGESLKISCKGSGYSFTSYWIAWVRQMPGKGLEYMGLIYPGDSDTKYSPSFQGQVTISVDKSVSTAYLQWSSLKPSDSAVYFCARHDVGYCTDRTCAAWPEWLGVWGQGTLVTVSSGGGGSGGGGSGGGGSQSVLTQPPSVSAAPGQKVTISCSGSSSNIGNNYVSWYQQLPGTAPKLLIYGHTNRPAGVPDRFSGSKSGTSASLAISGFRSEDEADYYCASWDYTLSGWVFGGGTKLTVLMASMTGGQQMG
modifications: Maytansine DM1-dPEG12 (from compound 90) on lysine residues, DAR 8 by LC-MS
notes: also called TCT1067-Maytansine-PEG(12) DM1 ADC 2; scFv (TCT1067)-DM1 DAR 8
As for B6, in [1], the koff amounted to 3.28e-05 s⁻¹ and the kon stood at 13200 M⁻¹ s⁻¹. Besides, the affinity in test [7], expressed as Kd, was 2.48 nM.

B7: scFv (TCT) (scFv)
scFv: SGSGGSGQVQLVQSGAEVKKPGESLKISCKGSGYSFTSYWIAWVRQMPGKGLEYMGLIYPGDSDTKYSPSFQGQVTISVDKSVSTAYLQWSSLKPSDSAVYFCARHDVGYCSSSNCAAWPEYFQHWGQGTLVTVSSGGGGSGGGGSGGGGSQSVLTQPPSVSAAPGQKVTISCSGSSSNIGNNYVSWYQQLPGTAPKLLIYGHTNRPAGVPDRFSGSKSGTSASLAISGFRSEDEADYYCAAWDDSLSGWVFGGGTKLTVLMASMTGGQQMG
notes: Anti-HER2 C6.5 scFv with residual Ser, GSGGSG linker and C-terminal T7 tag; also called cleaved TCT; unmodified scFv (TCT)
Turning to B7, the Kd worked out at 1.49 nM in [1], 7 nM in the test with HER2-Fc [8], 2.5 nM with HER2-Fc [10] and 6.97 nM in the test with HER2-Fc [11]. In test [1], this molecule had a koff of 0.00417 s⁻¹. The molecule further gave a kon in test [1] of 2.8e+06 M⁻¹ s⁻¹. In addition, the figures for the “EC50 (read off the curve)” value in the test with HER2-Fc [9] and with HER2-Fc [11] were 2 to 3 nM and around 7 nM, respectively.

B8: scFv TCT-P5C5(1) (DAR 8) (scFv)
scFv: SGSGGSGQVQLVQSGAEVKKPGESLKISCKGSGYSFTSYWIAWVRQMPGKGLEYMGLIYPGDSDTKYSPSFQGQVTISVDKSVSTAYLQWSSLKPSDSAVYFCARHDVGYCSSSNCAAWPEYFQHWGQGTLVTVSSGGGGSGGGGSGGGGSQSVLTQPPSVSAAPGQKVTISCSGSSSNIGNNYVSWYQQLPGTAPKLLIYGHTNRPAGVPDRFSGSKSGTSASLAISGFRSEDEADYYCAAWDDSLSGWVFGGGTKLTVLMASMTGGQQMG
modifications: P5C5 (from P5C5-NHS, compound 6) on lysine residues, DAR 8.17 by AAA
notes: also called scFv (TCT)-P5C5, DAR = 8; compound 71
With B8, in the test with HER2-Fc [11], the half-maximal effective concentration (EC50 (read off the curve)) is 10 to 20 nM. The Kd with HER2-Fc [11] and with HER2-Fc [12] was 13 nM in each case.

The record behind these values is patent publication US20220233706A1 (ANTIKOR BIOPHARMA, published 2022).
